Columns and labels:
[1] = target: human recombinant DLL3 antigen (human) (UniProt Q9NYJ7); test: IRF assay on recombinant human DLL3 coated M-270-carboxy Dynabeads, 10 µg beads
[2] = target: CEACAM5 coated on M270-carboxy Dynabeads (UniProt P06731); test: IRF assay on CEACAM5-coated M270-carboxy Dynabeads, 33 µg beads
[3] = target: CEACAM5 coated on M270-carboxy Dynabeads (UniProt P06731); test: IRF assay on CEACAM5-coated M270-carboxy Dynabeads, 333 µg beads
[4] = target: CEACAM5 coated on M270-carboxy Dynabeads (UniProt P06731); test: IRF assay on CEACAM5-coated M270-carboxy Dynabeads, 100 µg beads

CEACAM5 coated on M270-carboxy Dynabeads, sequence (P06731 35-685 limits assumed): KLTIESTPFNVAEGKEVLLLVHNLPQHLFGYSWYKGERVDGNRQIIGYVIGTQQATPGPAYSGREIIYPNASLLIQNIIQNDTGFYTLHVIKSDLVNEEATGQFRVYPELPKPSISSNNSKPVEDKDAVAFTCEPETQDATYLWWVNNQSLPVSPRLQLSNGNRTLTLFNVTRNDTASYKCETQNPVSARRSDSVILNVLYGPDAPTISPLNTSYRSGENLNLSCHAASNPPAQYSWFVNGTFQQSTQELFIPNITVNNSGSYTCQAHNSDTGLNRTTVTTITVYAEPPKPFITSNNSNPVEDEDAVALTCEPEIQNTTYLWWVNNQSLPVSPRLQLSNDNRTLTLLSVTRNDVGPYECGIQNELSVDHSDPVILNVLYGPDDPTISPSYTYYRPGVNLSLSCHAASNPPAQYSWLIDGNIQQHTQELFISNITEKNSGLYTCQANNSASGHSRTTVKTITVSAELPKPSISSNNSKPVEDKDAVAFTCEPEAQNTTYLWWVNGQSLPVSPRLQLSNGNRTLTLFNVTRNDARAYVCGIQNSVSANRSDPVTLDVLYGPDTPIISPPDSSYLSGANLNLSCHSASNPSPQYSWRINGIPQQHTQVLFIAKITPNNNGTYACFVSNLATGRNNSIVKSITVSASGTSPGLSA
human recombinant DLL3 antigen (human), sequence (Q9NYJ7 27-492 limits assumed): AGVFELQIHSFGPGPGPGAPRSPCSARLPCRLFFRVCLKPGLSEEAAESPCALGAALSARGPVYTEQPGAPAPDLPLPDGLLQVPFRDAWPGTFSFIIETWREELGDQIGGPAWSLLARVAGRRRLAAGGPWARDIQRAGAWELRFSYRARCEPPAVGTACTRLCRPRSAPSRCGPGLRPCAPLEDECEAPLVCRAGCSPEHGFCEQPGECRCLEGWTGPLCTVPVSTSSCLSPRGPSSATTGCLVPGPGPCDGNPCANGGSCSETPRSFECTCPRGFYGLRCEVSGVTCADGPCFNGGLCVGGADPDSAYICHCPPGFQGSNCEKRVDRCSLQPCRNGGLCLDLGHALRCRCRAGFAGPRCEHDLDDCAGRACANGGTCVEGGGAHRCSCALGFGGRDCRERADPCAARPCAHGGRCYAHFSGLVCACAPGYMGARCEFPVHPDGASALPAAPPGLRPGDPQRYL

maximum binding (IRF) [1] | IRF (immunoreactive fraction) [2] | IRF (immunoreactive fraction) [3] | IRF (immunoreactive fraction) [4] | Substance
86% |  |  |  | Ac-225-macropa-Rovalpituzumab (antibody)
 | 43% | 97% | 88% | Ac-225-macropa-Labetuzumab (antibody)

— patent EP4552657A1, “RADIOPHARMACEUTICAL COMPLEXES AND COMBINATIONS” (priority 2023, dated 2025)
